Several values for one entry are separate records, joined by “and”; a condition that tells them apart may be missing. Equal entries are not always repeated. Blank lines part the entries; values can stand above or below the substance they belong to.
Columns and labels:
Assay in all cases: cell-based or functional assay
human IL-17RA (human) = human IL-17RA (human) (UniProt Q96F46)
human IL-25 (human) = human IL-25 (human) (UniProt Q9H293)
human IL-17RB (human) = human IL-17RB (human) (UniProt Q9NRM6)
Chain of human IL-17RB (human) (Q9NRM6 18-502): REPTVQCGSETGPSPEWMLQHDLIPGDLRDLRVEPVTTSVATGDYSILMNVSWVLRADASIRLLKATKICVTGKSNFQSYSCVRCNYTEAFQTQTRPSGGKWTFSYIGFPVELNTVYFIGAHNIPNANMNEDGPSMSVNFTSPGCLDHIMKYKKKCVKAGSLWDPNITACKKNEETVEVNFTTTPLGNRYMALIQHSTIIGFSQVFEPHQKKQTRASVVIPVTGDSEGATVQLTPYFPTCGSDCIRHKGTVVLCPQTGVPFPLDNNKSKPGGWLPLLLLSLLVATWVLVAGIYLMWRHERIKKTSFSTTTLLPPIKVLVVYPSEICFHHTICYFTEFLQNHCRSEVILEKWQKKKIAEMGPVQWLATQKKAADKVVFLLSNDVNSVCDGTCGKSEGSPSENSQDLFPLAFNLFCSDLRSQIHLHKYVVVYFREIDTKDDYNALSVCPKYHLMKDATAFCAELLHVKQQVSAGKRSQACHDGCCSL

Chain of human IL-25 (human) (Q9H293 33-177 limits assumed): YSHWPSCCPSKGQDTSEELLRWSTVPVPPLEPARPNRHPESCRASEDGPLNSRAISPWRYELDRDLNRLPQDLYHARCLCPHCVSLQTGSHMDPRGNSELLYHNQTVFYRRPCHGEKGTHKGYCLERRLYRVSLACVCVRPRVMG

% Inhibition of IL-5 production, TSLP treated human PBMC + IL-2 + IL-25; inhibitor 10 micrograms/mL (human IL-17RA (human)): 24% and 33%
Substance: MAB1771: anti-HuIL-17RA MuIgG2b (R&D Systems) (antibody)

% Inhibition of IL-5 production, TSLP treated human PBMC + IL-2 + IL-25; inhibitor 10 micrograms/mL (human IL-25 (human)): 67%
Substance: HuIL-17RB: HIS (extracellular region of human IL-17RB fused to poly HIS) (from UniProt Q9NRM6 18-292) (receptor)

% Inhibition of IL-5 production, TSLP treated human PBMC + IL-2 + IL-25; inhibitor 10 micrograms/mL (human IL-17RB (human)): 13%
Substance: MAB1207: anti-HuIL-17RB MuIgG2b (R&D Systems) (antibody)
